How the values were obtained:
[1] = molecular target: CD2 antigen on human peripheral blood CD14+ myeloid cells / primary dendritic cells (and CD3+ T cells) (human) (UniProt P06729); assay: cell-based or functional assay
[2] = molecular target: CD2 antigen on human peripheral blood CD14+ myeloid cells / primary dendritic cells (and CD3+ T cells) (human) (UniProt P06729); assay: flow cytometry, staining of enriched human CD14+ myeloid cells
[3] = molecular target: CD2 antigen on human peripheral blood CD14+ myeloid cells / primary dendritic cells (and CD3+ T cells) (human) (UniProt P06729); assay: flow cytometry, anti-T113 staining after 30 min pre-incubation with anti-T112, 4 C, Mg++/Ca++-free medium

UniProt P06729, sequence (P06729 25-351): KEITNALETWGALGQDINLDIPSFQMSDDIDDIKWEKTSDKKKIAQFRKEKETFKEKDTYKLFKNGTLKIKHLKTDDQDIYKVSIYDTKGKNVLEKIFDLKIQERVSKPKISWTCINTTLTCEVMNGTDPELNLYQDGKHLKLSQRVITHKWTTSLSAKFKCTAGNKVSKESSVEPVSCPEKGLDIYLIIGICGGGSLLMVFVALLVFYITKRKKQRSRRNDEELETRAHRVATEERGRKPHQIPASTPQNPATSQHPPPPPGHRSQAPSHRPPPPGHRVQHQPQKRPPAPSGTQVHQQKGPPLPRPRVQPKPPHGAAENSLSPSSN

**Q.** “CD58 expressed on transfected CHO cells (CHO-58) (from UniProt P19256 29-250) (ligand)” was tested. Which IL-1β in DC/CHO-58 cocultures compared with DC/CHO-NEO [1] did it give?
**A.** 2 fold

**Q.** And the IL-12 in DC/CHO-58 cocultures compared with DC/CHO-NEO [1]?
**A.** 26 fold

**Q.** What about the level of HLA-DR on primary dendritic cells cocultured with CHO-58 [1] of the same substance?
**A.** > 2.5 fold

**Q.** anti-T111 monoclonal antibody was tested. Which percent of CD14+ Mx on which CD2 was identified [2] did it give?
**A.** 30%

**Q.** What about the IL-1β release, monocyte-derived dendritic cells against primary dendritic cells [1] of the same substance?
**A.** 75 fold

**Q.** And the IL-12 release, monocyte-derived dendritic cells against primary dendritic cells [1]?
**A.** 100 fold

**Q.** What about the allogeneic naive CD4 T cell proliferation induced by antibody-pulsed primary dendritic cells ([3H]thymidine) [1] of the same substance?
**A.** 2.5 fold

**Q.** How did the percent of CD14+ Mx on which CD2 was identified [2] turn out when anti-T112 monoclonal antibody was run?
**A.** 37%

**Q.** With anti-T113 monoclonal antibody as the substance, how does the percent of CD14+ Mx that were CD2+ [3] read?
**A.** 20%

**Q.** What about the CD50 MFI of primary dendritic cells, after CD2 engagement [1] of the same substance?
**A.** 90 MFI

**Q.** What about the CD50 MFI of primary dendritic cells, control [1] of the same substance?
**A.** 148 MFI

**Q.** What about the HLA-DQ level on primary dendritic cells (anti-T113 added to anti-T112-enriched cells) [1] of the same substance?
**A.** 9 fold

**Q.** What about the HLA-DR level on primary dendritic cells (anti-T113 added to anti-T112-enriched cells) [1] of the same substance?
**A.** 2 fold

**Q.** What about the MFI of CD50^hi (so in the source) primary dendritic cells [1] of the same substance?
**A.** 53%

**Q.** What about the [Ca++]i in CD3+ T cells above baseline (anti-T112 and anti-T113 cross-linked with goat anti-mouse IgG) [1] of the same substance?
**A.** 180%

**Q.** And the high expressing CD86 population of primary dendritic cells (anti-T112/3 pair) [1]?
**A.** 65%

**Q.** What about the increase in [Ca++]i in CD14+ Mx (anti-T113 added after anti-T112) [1] of the same substance?
**A.** 69%

**Q.** What about the increase in [Ca++]i in CD14+ Mx above baseline (anti-T112 and anti-T113 cross-linked with goat anti-mouse IgG) [1] of the same substance?
**A.** 95%

**Q.** And the level of CD40 on primary dendritic cells (anti-T112/3 pair) [1]?
**A.** 2 fold

**Q.** What about the level of CD54 on primary dendritic cells (baseline 14%) [1] of the same substance?
**A.** 9 fold

**Q.** What about the level of CD80 on primary dendritic cells (anti-T112/3 pair) [1] of the same substance?
**A.** 3 fold

**Q.** What about the levels of HLA-DR and HLA-DQ on primary dendritic cells (anti-T112/3 pair against control) [1] of the same substance?
**A.** 2 to 3 fold

**Q.** And the percent CD50^hi of primary dendritic cells, after CD2 engagement [1]?
**A.** 76%

**Q.** And the percent CD50^hi of primary dendritic cells, control [1]?
**A.** 96%

**Q.** What about the percentage of CD50^hi (so in the source) of primary dendritic cells [1] of the same substance?
**A.** 21%
